Assay results taken from patent publication US9090686B2, “Antibodies for the treatment of HIV” (Pierre Fabre Medicament, priority 2009, dated 2015).

Legend:
[1] = test system: NIH3T3 cells; test: FACS binding to parent NIH3T3 cells; details: for binding to parent NIH3T3 cells (in words): FACS; for NIH3T3 (MFI): Mab 10 μg/ml, Mean Fluorescence Intensity by FACS
Protocol: (§1) NIH3T3 and NIH3T3-hCXCR4 transfected cells were incubated with 10 μg/ml of monoclonal antibodies 515H7 and 301aE5. The cells were then washed with 1% BSA/PBS/0.01% NaN3. Next, Alexa-labeled secondary antibodies were added to the cells and were allowed to incubate at 4° C. for 20 min. The cells were then washed again two times. Following the second wash, FACS analysis was performed.
as §1, with “NIH3T3-hCXCR4” for “NIH3T3 and NIH3T3-hCXCR4”, “a dose range” for “10 μg/ml”, “antibody c515H7 from 0 μg/ml to 10 μg/ml.” for “antibodies 515H7 and 301aE5.”, “1%BSA/PBS/0.01%” for “1% BSA/PBS/0.01%”
(§2) NIH3T3, NIH3T3-hCXCR4 transfected were incubated with 0 to 10 μg/mL of humanized Mabs 515H7 (hz515H7 VH1 D76N VL2, hz515H7 VH1 D76N VL2.1, hz515H7 VH1 D76N VL2.2, hz515H7 VH1 D76N VL2.3) for 20 min at 4° C. in the dark in 100 μl Facs buffer. After 3 washing in Facs buffer, cells were incubated with the secondary antibody, a goat anti-human Alexa 488 (dilution 1/500), for 20 minutes at 4° C. in the dark. After 3 washing in Facs buffer, propidium iodide was added in each well and only viable cells were analyzed by Facs. At least 5000 viable cells were assessed to evaluate the mean value of fluorescence intensity for each condition.

[2] = target: T1, native form of CXCR4 expressed at the cell surface of monocytes and T lymphocytes (Homo sapiens, UniProt P61073); test: FACS binding to peripheral blood mononuclear cells (whole blood); details: CD3 positive and CD14 positive cells, whole blood of healthy donor
T1 construct: the native form of CXCR4 expressed at the cell surface of monocytes and T lymphocytes; endogenous in cells; host or cells: whole blood (buffy coat) of a healthy donor; CD14+ monocytes and CD3+ T cells
T1 sequence (P61073 whole entry): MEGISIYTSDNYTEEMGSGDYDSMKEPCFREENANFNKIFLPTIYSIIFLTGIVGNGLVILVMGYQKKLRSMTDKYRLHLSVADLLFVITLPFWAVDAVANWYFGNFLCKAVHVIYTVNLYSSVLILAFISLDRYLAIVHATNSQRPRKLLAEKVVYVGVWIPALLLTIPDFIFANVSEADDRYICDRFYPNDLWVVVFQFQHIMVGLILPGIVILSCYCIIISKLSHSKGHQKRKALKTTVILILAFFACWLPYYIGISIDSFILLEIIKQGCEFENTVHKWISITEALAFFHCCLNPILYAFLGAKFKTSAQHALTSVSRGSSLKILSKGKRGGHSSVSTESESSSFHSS
Protocol: Blood was collected as buffy coat from healthy donor. 100 μl of whole blood was incubated with anti-human CXCR4 antibodies (clones 515H7 and 301aE5) at the indicated concentration for 20 minutes at 4° C. Blood was washed three times in PBS-BSA 1%-NaN3 0.01% and incubated with goat anti-human Alexa 488 IgG diluted 1:500 (Invitrogen) for 20 minutes at 4° C. Cells were then washed and incubated with CD14-PE (Caltag) or CD3-PE (Caltag) for 10 minutes at 4° C. and washed three times. Red blood cells were lysed with High-Yield lyse solution (Caltag) for 10 minutes at room temperature. Cells were analyzed immediately using Facscalibur (Becton-Dickinson). CXCR4 expression on monocytes was done on CD14 positive cells and CXCR4 expression on T cell was done on CD3 positives cells (FIG. 1). Results are expressed in Antigen Binding Capacity (ABC).

[3] = test system: HIV-1 primary isolate 89.6 (dual X4/R5 virus); test: Single cycle neutralization assay in human PBMC, isolate 89.6; assay type: cell-based
Protocol: This assay is performed in 36 h using primary isolate 89.6 concentrated and diluted accordingly to allow the detection 2% infected CD4 T lymphocytes after 2 days of infection.
Twenty-five microliters of various dilutions of Mabs 515H7, c515H7 and 301aE5 were incubated for 1 h at 37° C. with 25 μl of virus. Human PBMC (25 μl) at 20×10^6 cells/ml were added to the Mab/virus mixture in a 96-well plate (U-bottom, Costar 3599) and cultured for 36 h in RPMI 1640 10% FCS and 20 U/ml IL-2 (R&D Systems, Minneapolis, Minn.).
After 2 days of culture, HIV-infected lymphocytes were detected by intracellular staining of viral p24 Ag. Cells were fixed and permeabilized using both Cytofix/Cytoperm and Perm/Wash kits (BD Biosciences) according to the manufacturer and stained with a fluorescent anti-p24 Mab (FITC- or PE-anti-p24, clone KC57; Beckman Coulter/Immunotech, Hialeah, FL) used at a 1/160 dilution in Perm/Wash solution added for 15 min at 4° C. After washing in PBS with 3% FBS, PBMC were diluted in 300 μl of PBS before flow cytometry analysis (LSRII; BD Biosciences) with DIVA software (BD Biosciences). The percentage of p24-positive cells in the different samples was determined by gating 20,000 events on a living cell population identified by forward- and side-scatter parameters. The living cell subsets were analyzed with the live/dead solution kit (Invitrogen). The p24 Ag-positive value was obtained after subtraction of background events in mock-infected cells.
The percent of neutralization was defined as the reduction of p24-positive cells compared with control infected wells with no Mab. The neutralizing titer was defined as the concentration of antibody (interpolated between successive dilutions performed in triplicate) that allows a 90% decrease in the percentage of infected cells.

[4] = target: human CXCR4 (Homo sapiens, UniProt P61073); test: FACS binding to NIH3T3-hCXCR4 transfected cells; set-up: expressed in transfected cells; host or cells: NIH3T3 (mouse fibroblasts); details: for binding to human CXCR4-NIH3T3 transfected cell line (in words): FACS; for NIH3T3-CXCR4 (MFI): Mab 10 μg/ml, Mean Fluorescence Intensity by FACS
human CXCR4, sequence (P61073 whole entry): as above
Protocol: In this experiment, the specific binding to human CXCR4 (hCXCR4) of anti-CXCR4 Mabs 515H7 and 301aE5 was examined by FACS analysis.
as §1
as §1, with “NIH3T3-hCXCR4” for “NIH3T3 and NIH3T3-hCXCR4”, “a dose range” for “10 μg/ml”, “antibody c515H7 from 0 μg/ml to 10 μg/ml.” for “antibodies 515H7 and 301aE5.”, “1%BSA/PBS/0.01%” for “1% BSA/PBS/0.01%”
as §2

Molecule | binding to parent NIH3T3 cells (in words) [1] | NIH3T3 (MFI) [1] | staining of T lymphocytes and monocytes [2] | inhibition of HIV-1 89.6 primary isolate replication in PBMC (in words) [3] | binding to human CXCR4-NIH3T3 transfected cell line (in words) [4] | NIH3T3-CXCR4 (MFI) [4]
515H7: murine anti-CXCR4 monoclonal antibody; light chain variable domain SEQ ID No. 7, heavy chain variable domain SEQ ID No. 8 (antibody, listed as Mus musculus, V domains shown) VH: EVNLVESGGGLVQPGGSLRLSCATSGFTFTDNYMSWVRQPPGKALEWLGFIRNKANGYTTDYSASVRGRFTISRDNSQSILYLQMNALRAEDSATYYCARDVGSNYFDYWGQGTTLTVSS VL: DIVMSQSPSSLAVSAGEKVTMSCKSSQSLFNSRTRKNYLAWYQQKPGQSPKLLIYWASARDSGVPARFTGSGSETYFTLTISRVQAEDLAVYYCMQSFNLRTFGGGTKLEIK | no recognition | 16 | stained both T lymphocytes (FIG. 2A) and monocytes (FIG. 2B) | able to inhibit | bind specifically | 2752
301aE5: murine anti-CXCR4 monoclonal antibody; light chain variable domain SEQ ID No. 34, heavy chain variable domain SEQ ID No. 35 (antibody, listed as Mus musculus, V domains shown) VH: QVQLKESGPGLVAPSQSLSITCTVSGFSLTDYGVYWVRQPPGKGLEWLGMIWGDGTTDYNSALKSRLSISKDNSKSQVFLKMNTLQTDDTARYYCARGRQFGFDYWGQGTTLTVSS VL: DIVMSQSPSSLAVSAGEKVTMRCKSSQSLFNSRTRKNYLAWYQQKPGQSPKLLIFWASIRESGVPDRFTGSGSGTDFTLTISSVQAEDLAVYYCKQSYNLRTFGGGTKLEIK | no recognition | 21 | stained both T lymphocytes (FIG. 2A) and monocytes (FIG. 2B) | able to inhibit | bind specifically | 1367
c515H7: chimeric antibody 515H7: murine variable domains fused to human Ckappa and IgG1/IgG2/IgG4 constant domains; isotype tested not stated (antibody, V domains shown) VH: EVNLVESGGGLVQPGGSLRLSCATSGFTFTDNYMSWVRQPPGKALEWLGFIRNKANGYTTDYSASVRGRFTISRDNSQSILYLQMNALRAEDSATYYCARDVGSNYFDYWGQGTTLTVSS VL: DIVMSQSPSSLAVSAGEKVTMSCKSSQSLFNSRTRKNYLAWYQQKPGQSPKLLIYWASARDSGVPARFTGSGSETYFTLTISRVQAEDLAVYYCMQSFNLRTFGGGTKLEIK | No binding was detected | – | – | able to inhibit | bound specifically | –
